For assay [1], the target named is HER2 fragment V529-P625, C-terminal GSH6 tag (UniProt P04626). Put plainly: SPR; Biacore T200; biotinylated HER2 fragment V529-P625 immobilised on streptavidin chip (SA); scFv 0.2-5 μM in 50 mM sodium phosphate pH 7.4; triplicate.
Assay [2] has as its target T1, synthetic peptide DATAEEEEDFGEEA corresponding to residues 427-440 of human β-tubulin (Homo sapiens).
T1 construct: also called β-tubulin peptide; source: synthetic peptide (Fmoc chemistry, ABI433A)
T1 chain: DATAEEEEDFGEEA-biotin
The assay is described as follows: SPR; Biacore T200; C-terminally biotinylated β-tubulin peptide immobilised on streptavidin chip (SA); scFv 0.375-12 μM in 50 mM sodium phosphate pH 7.4. The note with it: both partners purified.

Assay [3] has as its target T2, full length human ITGA4 (antigen CD49, α4 subunit of VLA-4 receptor) (Homo sapiens, UniProt P13612).
T2 construct: integrin alpha-4 (ITGA4, CD49, α4 subunit of VLA-4), human, full length; also called ITG4A; ITGA4 full length
Put plainly: far-Western, overlay or dot blot; dot blot: 80 ng full length ITGA4 spotted on Immobilon-P; 6 μg/mL scFv in TBS, 1 h, room temperature; detected with HRP-labelled anti-His tag antibody. The settings on record: both partners purified.

No end group written: not given here.

Broadly, the Kd is the concentration at which binding is half-saturated. Higher therefore signals lower affinity. Molecule “natalizumab framework-trastuzumab CDRs hybrid scFv, expressed with CyDisCo” returned a Kd in assay [1] of 147 nM.

B1: IgA1 scFv (human), expressed with CyDisCo (scFv, V domains shown)
VH: EVQLVESGGGLVQPGGSLKLSCAASGFTLSGSNVHWVRQASGKGLEWVGRIKRNAESDATAYAASMRGRLTISRDDSKNTAFLQMNSLKSDDTAMYYCVIRGDVYNRQWGQGTLVTVSS
VL: DIVMTQSPLSLSVTPGEPASISCRSSQSLLRRDGHNDLEWYLQKPGQSPQPLIYLGSTRASGVPDRFSGSGSGTDFTLKIIRVEAEDAGTYYCMQNKQTPLTFGQGTRLEIK
notes: VL of the anti-beta-tubulin IgA1; linker, printed as (Gly4Ser)3; VH of the anti-beta-tubulin IgA1; Expected mass 27342 Da with disulfide bonds; also called IgA1-IgA1; parental scFv IgA1; source: E. coli BW25113 cytoplasm, co-expressed with CyDisCo (Erv1p and PDI), purified (IMAC, desalted)
Consider B1, for which the Kd in assay [2] was found to be 3560 nM.

B2: natalizumab scFv (IgG4 humanized), expressed without CyDisCo (scFv, V domains shown)
VH: QVQLVQSGAEVKKPGASVKVSCKASGFNIKDTYIHWVRQAPGQRLEWMGRIDPANGYTKYDPKFQGRVTITADTSASTAYMELSSLRSEDEAVYYCAREGYYGNYGVYAMDYWGQGTLVTVSS
VL: DIQMTQSPSSLSASVGDRVTITCKTSQDINKYMAWYQQTPGKAPRLLIHYTSALQPGIPSRFSGSGSGRDYTFTISSLQPEDIATYYCLQYDNLWTFGQGTKVEIK
notes: VL of natalizumab, as the VL of m5; linker, printed as (Gly4Ser)3; VH of natalizumab, as the VH of m5; expected mass 27755 Da); also called natalizumab - CyDisCo; Tysabri scFv; source: E. coli BW25113 cytoplasm, without CyDisCo (control vector pAG82), purified (IMAC, desalted); not shown: GSH6, C-terminal, kept
Regarding B2, the binding result in assay [3] is recorded as “binds”.

B3: natalizumab scFv (IgG4 humanized), expressed with CyDisCo (scFv, V domains shown)
VH: QVQLVQSGAEVKKPGASVKVSCKASGFNIKDTYIHWVRQAPGQRLEWMGRIDPANGYTKYDPKFQGRVTITADTSASTAYMELSSLRSEDEAVYYCAREGYYGNYGVYAMDYWGQGTLVTVSS
VL: DIQMTQSPSSLSASVGDRVTITCKTSQDINKYMAWYQQTPGKAPRLLIHYTSALQPGIPSRFSGSGSGRDYTFTISSLQPEDIATYYCLQYDNLWTFGQGTKVEIK
notes: VL of natalizumab; linker, printed as (Gly4Ser)3; VH of natalizumab; expected mass 27751 Da); also called natalizumab-natalizumab; Tysabri scFv; source: E. coli BW25113 cytoplasm, co-expressed with CyDisCo (Erv1p and PDI), purified (IMAC, desalted); not shown: GSH6, C-terminal, kept
In the case of B3, in assay [3], the binding result is given as “binds”.
